Measured values from patent US20260242839A1, “GLYCOSIDE PRODUCT BIOSYNTHESIS AND RECOVERY” (Manus Bio Inc., priority 2023, published 2026).

B1: S308Q: mutation to UGT enzyme of SEQ ID NO: 14 (protein)
chain: MATKNSSGMSLAERFWLTLSRSSLVVGRSCVEFEPETVPLLSTLRGKPITFLGLMPPLHEGRREDGEDATVRWLDAQPAKSVVYVALGSEVPLGVEKVHELALGLELAGTRFLWALRKPTGVSDADLLPAGFEERTRGRGVVATRWVPQMSILAHAAVGAFLTHCGWNSTIEGLMFGHPLIMLPITGDQGPNARLIEAKNAGLQVARNDGDGSFDREGVAAAIRAVAVEEESSKVFQAKAKKLQEIVADMACHERYIDGFIQQLRSYKDDSGYSSSYAAAAGMHVVICPWLAFGHLLPCLDLAQRLAQRGHRVSFVSTPRNISRLPPVRPALAPLVAFVALPLPRVEGLPDGAESTNDVPHDRPDMVELHRRAFDGLAAPFSEFLGTACADWVIVDSFHHWAAAAALEHKVPCAMMLLGSAEMIASIADERLEHAETESPAAAGQGRPAAAPTFEVARMKLIR
B2: L203I: mutation to UGT enzyme of SEQ ID NO: 14 (protein)
chain: MATKNSSGMSLAERFWLTLSRSSLVVGRSCVEFEPETVPLLSTLRGKPITFLGLMPPLHEGRREDGEDATVRWLDAQPAKSVVYVALGSEVPLGVEKVHELALGLELAGTRFLWALRKPTGVSDADLLPAGFEERTRGRGVVATRWVPQMSILAHAAVGAFLTHCGWNSTIEGLMFGHPLIMLPITGDQGPNARLIEAKNAGIQVARNDGDGSFDREGVAAAIRAVAVEEESSKVFQAKAKKLQEIVADMACHERYIDGFIQQLRSYKDDSGYSSSYAAAAGMHVVICPWLAFGHLLPCLDLAQRLASRGHRVSFVSTPRNISRLPPVRPALAPLVAFVALPLPRVEGLPDGAESTNDVPHDRPDMVELHRRAFDGLAAPFSEFLGTACADWVIVDSFHHWAAAAALEHKVPCAMMLLGSAEMIASIADERLEHAETESPAAAGQGRPAAAPTFEVARMKLIR
B3: E254D: mutation to UGT enzyme of SEQ ID NO: 14 (protein)
chain: MATKNSSGMSLAERFWLTLSRSSLVVGRSCVEFEPETVPLLSTLRGKPITFLGLMPPLHEGRREDGEDATVRWLDAQPAKSVVYVALGSEVPLGVEKVHELALGLELAGTRFLWALRKPTGVSDADLLPAGFEERTRGRGVVATRWVPQMSILAHAAVGAFLTHCGWNSTIEGLMFGHPLIMLPITGDQGPNARLIEAKNAGLQVARNDGDGSFDREGVAAAIRAVAVEEESSKVFQAKAKKLQEIVADMACHDRYIDGFIQQLRSYKDDSGYSSSYAAAAGMHVVICPWLAFGHLLPCLDLAQRLASRGHRVSFVSTPRNISRLPPVRPALAPLVAFVALPLPRVEGLPDGAESTNDVPHDRPDMVELHRRAFDGLAAPFSEFLGTACADWVIVDSFHHWAAAAALEHKVPCAMMLLGSAEMIASIADERLEHAETESPAAAGQGRPAAAPTFEVARMKLIR
B4: T186M: mutation to UGT enzyme of SEQ ID NO: 14 (protein)
chain: MATKNSSGMSLAERFWLTLSRSSLVVGRSCVEFEPETVPLLSTLRGKPITFLGLMPPLHEGRREDGEDATVRWLDAQPAKSVVYVALGSEVPLGVEKVHELALGLELAGTRFLWALRKPTGVSDADLLPAGFEERTRGRGVVATRWVPQMSILAHAAVGAFLTHCGWNSTIEGLMFGHPLIMLPIMGDQGPNARLIEAKNAGLQVARNDGDGSFDREGVAAAIRAVAVEEESSKVFQAKAKKLQEIVADMACHERYIDGFIQQLRSYKDDSGYSSSYAAAAGMHVVICPWLAFGHLLPCLDLAQRLASRGHRVSFVSTPRNISRLPPVRPALAPLVAFVALPLPRVEGLPDGAESTNDVPHDRPDMVELHRRAFDGLAAPFSEFLGTACADWVIVDSFHHWAAAAALEHKVPCAMMLLGSAEMIASIADERLEHAETESPAAAGQGRPAAAPTFEVARMKLIR
B5: S151R: mutation to UGT enzyme of SEQ ID NO: 14 (protein)
chain: MATKNSSGMSLAERFWLTLSRSSLVVGRSCVEFEPETVPLLSTLRGKPITFLGLMPPLHEGRREDGEDATVRWLDAQPAKSVVYVALGSEVPLGVEKVHELALGLELAGTRFLWALRKPTGVSDADLLPAGFEERTRGRGVVATRWVPQMRILAHAAVGAFLTHCGWNSTIEGLMFGHPLIMLPITGDQGPNARLIEAKNAGLQVARNDGDGSFDREGVAAAIRAVAVEEESSKVFQAKAKKLQEIVADMACHERYIDGFIQQLRSYKDDSGYSSSYAAAAGMHVVICPWLAFGHLLPCLDLAQRLASRGHRVSFVSTPRNISRLPPVRPALAPLVAFVALPLPRVEGLPDGAESTNDVPHDRPDMVELHRRAFDGLAAPFSEFLGTACADWVIVDSFHHWAAAAALEHKVPCAMMLLGSAEMIASIADERLEHAETESPAAAGQGRPAAAPTFEVARMKLIR
B6: T453M: mutation to UGT enzyme of SEQ ID NO: 14 (protein)
chain: MATKNSSGMSLAERFWLTLSRSSLVVGRSCVEFEPETVPLLSTLRGKPITFLGLMPPLHEGRREDGEDATVRWLDAQPAKSVVYVALGSEVPLGVEKVHELALGLELAGTRFLWALRKPTGVSDADLLPAGFEERTRGRGVVATRWVPQMSILAHAAVGAFLTHCGWNSTIEGLMFGHPLIMLPITGDQGPNARLIEAKNAGLQVARNDGDGSFDREGVAAAIRAVAVEEESSKVFQAKAKKLQEIVADMACHERYIDGFIQQLRSYKDDSGYSSSYAAAAGMHVVICPWLAFGHLLPCLDLAQRLASRGHRVSFVSTPRNISRLPPVRPALAPLVAFVALPLPRVEGLPDGAESTNDVPHDRPDMVELHRRAFDGLAAPFSEFLGTACADWVIVDSFHHWAAAAALEHKVPCAMMLLGSAEMIASIADERLEHAETESPAAAGQGRPAAAPMFEVARMKLIR
B7: S123D: mutation to UGT enzyme of SEQ ID NO: 14 (protein)
chain: MATKNSSGMSLAERFWLTLSRSSLVVGRSCVEFEPETVPLLSTLRGKPITFLGLMPPLHEGRREDGEDATVRWLDAQPAKSVVYVALGSEVPLGVEKVHELALGLELAGTRFLWALRKPTGVDDADLLPAGFEERTRGRGVVATRWVPQMSILAHAAVGAFLTHCGWNSTIEGLMFGHPLIMLPITGDQGPNARLIEAKNAGLQVARNDGDGSFDREGVAAAIRAVAVEEESSKVFQAKAKKLQEIVADMACHERYIDGFIQQLRSYKDDSGYSSSYAAAAGMHVVICPWLAFGHLLPCLDLAQRLASRGHRVSFVSTPRNISRLPPVRPALAPLVAFVALPLPRVEGLPDGAESTNDVPHDRPDMVELHRRAFDGLAAPFSEFLGTACADWVIVDSFHHWAAAAALEHKVPCAMMLLGSAEMIASIADERLEHAETESPAAAGQGRPAAAPTFEVARMKLIR
B8: G94T: mutation to UGT enzyme of SEQ ID NO: 14 (protein)
chain: MATKNSSGMSLAERFWLTLSRSSLVVGRSCVEFEPETVPLLSTLRGKPITFLGLMPPLHEGRREDGEDATVRWLDAQPAKSVVYVALGSEVPLTVEKVHELALGLELAGTRFLWALRKPTGVSDADLLPAGFEERTRGRGVVATRWVPQMSILAHAAVGAFLTHCGWNSTIEGLMFGHPLIMLPITGDQGPNARLIEAKNAGLQVARNDGDGSFDREGVAAAIRAVAVEEESSKVFQAKAKKLQEIVADMACHERYIDGFIQQLRSYKDDSGYSSSYAAAAGMHVVICPWLAFGHLLPCLDLAQRLASRGHRVSFVSTPRNISRLPPVRPALAPLVAFVALPLPRVEGLPDGAESTNDVPHDRPDMVELHRRAFDGLAAPFSEFLGTACADWVIVDSFHHWAAAAALEHKVPCAMMLLGSAEMIASIADERLEHAETESPAAAGQGRPAAAPTFEVARMKLIR
B9: L58S: mutation to UGT enzyme of SEQ ID NO: 14 (protein)
chain: MATKNSSGMSLAERFWLTLSRSSLVVGRSCVEFEPETVPLLSTLRGKPITFLGLMPPSHEGRREDGEDATVRWLDAQPAKSVVYVALGSEVPLGVEKVHELALGLELAGTRFLWALRKPTGVSDADLLPAGFEERTRGRGVVATRWVPQMSILAHAAVGAFLTHCGWNSTIEGLMFGHPLIMLPITGDQGPNARLIEAKNAGLQVARNDGDGSFDREGVAAAIRAVAVEEESSKVFQAKAKKLQEIVADMACHERYIDGFIQQLRSYKDDSGYSSSYAAAAGMHVVICPWLAFGHLLPCLDLAQRLASRGHRVSFVSTPRNISRLPPVRPALAPLVAFVALPLPRVEGLPDGAESTNDVPHDRPDMVELHRRAFDGLAAPFSEFLGTACADWVIVDSFHHWAAAAALEHKVPCAMMLLGSAEMIASIADERLEHAETESPAAAGQGRPAAAPTFEVARMKLIR
B10: V336I_F338L: mutation to UGT enzyme of SEQ ID NO: 14 (protein)
chain: MATKNSSGMSLAERFWLTLSRSSLVVGRSCVEFEPETVPLLSTLRGKPITFLGLMPPLHEGRREDGEDATVRWLDAQPAKSVVYVALGSEVPLGVEKVHELALGLELAGTRFLWALRKPTGVSDADLLPAGFEERTRGRGVVATRWVPQMSILAHAAVGAFLTHCGWNSTIEGLMFGHPLIMLPITGDQGPNARLIEAKNAGLQVARNDGDGSFDREGVAAAIRAVAVEEESSKVFQAKAKKLQEIVADMACHERYIDGFIQQLRSYKDDSGYSSSYAAAAGMHVVICPWLAFGHLLPCLDLAQRLASRGHRVSFVSTPRNISRLPPVRPALAPLIALVALPLPRVEGLPDGAESTNDVPHDRPDMVELHRRAFDGLAAPFSEFLGTACADWVIVDSFHHWAAAAALEHKVPCAMMLLGSAEMIASIADERLEHAETESPAAAGQGRPAAAPTFEVARMKLIR

System: steviol glycoside
Assay: steviol glycoside bioconversion by E. coli expressing individual mutations of UGT SEQ ID NO: 14
Format: cell-based
Settings: fold improvement of % conversion vs parent UGT SEQ ID NO: 14; stevia leaf extract and glucose fed; 37° C., 48 hr
Protocol: Fold improvement is with respect to % steviol glycoside conversion of the parent UGT enzyme of SEQ ID NO: 14. The UGT enzyme of SEQ ID NO: 15 has the following mutations from SEQ ID NO: 14: ins_A2_T3_RR, H59P, A238E, L417F. Stevia leaf extract and glucose were fed to the bioconversion strains. Bioconversion took place at 37° C. for 48 hr. Data were quantified by reverse phase LC DAD to quantify conversion of steviol glycosides.
Fold improvement (FI) is with respect to % steviol glycoside conversion.

In order of rising “FI %Stevioside→rebE” value:
1. B4  1.5
2. B9  1.5
3. B10  1.5
4. B1  1.6
5. B2  1.6
6. B5  1.6
7. B8  1.6
8. B3  1.7
9. B6  1.7
10. B7  1.7

In order of falling “FI %rebA→rebD” value:
1. B1  1.6
2. B2  1.5
3. B3  1.5
4. B5  1.5
5. B6  1.5
6. B7  1.5
7. B4  1.4
8. B8  1.4
9. B9  1.4
10. B10  1.4
